{
  "source": "patent US20220089765A1",
  "about": "“CD31 COMPETITORS AND USES THEREOF” (ENCEFA, priority 2019, published 2022)",
  "key": {"[1]": {"test_system": "human peripheral blood mononuclear cells (PBMCs)", "assay": "IL-10 release from human PBMCs in vitro (ELISA)", "assay_type": "cell-based", "settings": "PBMCs from 3 healthy donors; 10 μg/ml; LPS 500 ng/mL and interferon-γ 1B 100 ng/mL; 24 hours", "method": "3 healthy volunteers (Donor 1: Donor 2: Donor 3) served as blood donors. Venous blood (5 mL) was collected into heparinized tubes and immediately processed. Briefly, blood was diluted 1/1 in pre-warmed RPMI 1640 medium. PBMCs were isolated using gradient centrifugation in Ficoll solution (Sigma; 300×g, 30 min). Isolated PBMCs were re-suspended in 1 volume of pre-warmed RPMI 1640 medium and centrifuged again (300×g, 30 min). PBMCs were re-suspended in RPMI 1640 medium supplemented with 10% human serum (Sigma-Aldrich) at a concentration of 10^7 cells per mL. Cells were seeded in 96 well microplate (100 μL per well). Test compounds (10 μg/ml), LPS (500 ng/mL) and interferon-γ 1B (100 ng/mL) were added to PBMCs culture immediately after plating. After 24 hours, cell culture supernatants were collected and frozen at −80° C. for further processing.\nIL-10 levels in cell culture supernatants were assayed using an ELISA human IL-10 kit (Ozyme®) according to the indications for use specified by the manufacturer."}, "[2]": {"test_system": "Dextran Sulfate Sodium (DSS)-induced colitis mouse model", "assay": "DSS-induced colitis mouse model, colon length", "assay_type": "in vivo, mice", "settings": "15 mg/kg iv when DSS treatment began; 3% DSS for 5 days", "description": "Administration of DSS causes human ulcerative colitis-like pathologies due to its toxicity to colonic epithelial cells, which results in compromised mucosal barrier function. Clinical observations similar to human pathologies, such as weight loss, diarrhea and occult blood in stool, are commonly observed in the DSS model. Moreover, diminution of the colon's length is characteristic of this model.\nExperimental colitis was induced in mice by giving drinking water ad libitum containing 3% (w/v) DSS for 5 days, while control mice received tap water only. Test compounds were intravenously administered (15 mg/kg) when DSS treatment began. Mice were sacrificed 9 days after the beginning of DSS treatment."}, "[3]": {"test_system": "Experimental Autoimmune Encephalomyelitis (EAE) mouse model", "assay": "EAE mouse model of multiple sclerosis, clinical score", "assay_type": "in vivo, mice", "settings": "15 mg/kg iv at symptom onset (10 days after MOG injection) and at day 20", "description": "Multiple sclerosis (MS) is a progressive inflammatory and demyelinating disease of the human central nervous system (CNS) in which an important role for the immune system in the pathogenesis of the disease is suspected (Lassmann, 2008. J Neurol Sci. 274(1-2):45-7). EAE is an induced disease in mice that affects the central nervous system and constitutes a model for human MS. After a subcutaneous injection of an emulsion with a Complete Freund's Adjuvant (CFA) mixed with oligodendrocyte membrane proteins like myelin oligodendrocyte glycoprotein (MOG), an immune response starts in the periphery and, within 2 weeks, causes inflammation in the CNS. In the same time, we can observe, a progressive ascending paralysis (tail to hindlimb to forelimb). To determine whether B08 anti-CD38 antibody could have beneficial effect in this disease, we injected this antibody (15 mg/kg at symptom onset (10 days after MOG injection) and at day 20).\nAnimals were anesthetized via inhalation with isoflurane (15 min). Mouse were immunized by subcutaneous injection of an emulsion containing 100 μg MOG peptide 35-55 in Complete Freund's Adjuvant and 500 μg HKMT (Heat-killed Mycobacterium tuberculosis) on day 0. Two hours later, animals received an intraperitoneal injection of 500 ng of pertussis toxin on day 0 and day 2. […]\nAfter immunization, animals were daily monitored for weight and clinical symptoms."}, "[4]": {"test_system": "midbrain dopaminergic (TH+) neurons", "assay": "MPP+ intoxication model in midbrain cell cultures, survival of DA (TH+) neurons", "assay_type": "cell-based, Wistar rat", "method": "For this purpose, spontaneously occurring DA cell death was prevented by a treatment combining depolarizing concentrations of K^+ (30 mM) and MK801 (5 μM), a glutamate receptor antagonist used to prevent unwanted excitotoxic insult. The cultures were then exposed to 3 μM MPP between 5 and 7 days in vitro (DIV) to achieve a loss of approximately 50% of DA neurons.\nAnimals were treated in accordance with the Guide for the Care and Use of Laboratory Animals (National Research Council, 1996), European Directive 86/609, and the guidelines of the local institutional animal care and use committee. Cultures were prepared from the ventral mesencephalon of gestational age 15.5 Wistar rat embryos (Janvier Breeding Center, Le Genest St Isle, France). Dissociated cells in suspension obtained by mechanical trituration of midbrain tissue pieces were seeded at a density of 1.2-1.5×10^5 cells/cm^2 onto tissue culture supports precoated with 1 mg/mL polyethylenimine diluted in borate buffer pH 8.3 as described (Michel et al., 1997. J Neurochem. 69(4):1499-507). The cultures were then maintained in N5 medium supplemented with 5 mM glucose, 5% horse serum, and 0.5% fetal calf serum, except for the first 3 DIV, when the concentration of fetal calf serum was 2.5% to favor initial maturation of the cultures (Guerreiro et al., 2008. Mol Pharmacol. 74(4):980-9). They were fed daily by replacing 70% of the medium. Routinely, mesencephalic cultures were established on Nunc 24-well culture plates (Thermofischer Scientific, Rochester, N.Y.). Note that these cultures contain tyrosine hydroxylase (TH)^+ neurons that were exclusively dopaminergic (Traver et al., 2006. Mol Pharmacol. 70(1):30-40). TH^+ neurons represented approximately 1-2% of the total number of neuronal cells present in these cultures. The evaluation of the survival of DA neurons was performed by counting cells immunopositive for TH as described (Toulorge et al., 2011. Faseb J. 25(8):2563-73).\nTreatments with MPP were performed in cultures where the spontaneous death process was prevented by long-term exposure to depolarizing concentrations of K^+ (30 mM), in the presence of the glutamate receptor antagonist MK801 (5 μM) to prevent unwanted excitotoxic insults as described previously (Douhou et al., 2001. J Neurochem. 78(1): 163-74). Treatments with MPP and potential neuroprotective molecules were carried out between 5 and 7 DIV.\nThe cultures were fixed for 12 min using 4% formaldehyde in Dulbecco's phosphate-buffered saline (PBS), then washed twice with PBS before an incubation step at 4° C. for 24 h with the following antibodies. A monoclonal anti-TH antibody diluted 1/5000 (ImmunoStar, Inc., Hudson, Wis.) was used to assess the survival of DA neurons. Antibody was diluted in PBS containing 0.2% Triton X-100. Detection of the primary antibodies was performed with an Alexa Fluor-488 conjugate of an anti-mouse IgG antibody."}},
  "data": [
    {"molecule": "Clone B08: anti-human CD38 antibody, HCVR SEQ ID NO: 33 and LCVR SEQ ID NO: 39 (antibody, V domains shown, HCVR B08; LCVR B08) VH: EVQLVESGGSLVKPGGSLRLSCAASGFTFSNYYMNWVRQAPGKGLEWISSISGSSRSIYYADFVKGRFTISRDNAKNSLYLQMNSLRAEDTAVYYCVRSSDDYYYDYGMDVWGRGTLVTVSS VL: QSVLTQPASVSGSPGQSITISCAGTSSDVGGSYSVSWYQQHPGKAPKLMIYDDSNRPSGVSNRFSGSKSGNTASLTISGLQAEDEADYYCSSYTDYSTRVFGGGTKL", "values": [
      {"measurement": "IL-10 release", "setting": "[1]", "value": "statistically significantly increased"},
      {"measurement": "diminution of the colon's length", "setting": "[2]", "value": "statistically significantly repressed"},
      {"measurement": "clinical score compared with PBS-injected mice", "setting": "[3]", "value": "significantly reduced"},
      {"measurement": "neuroprotective effect against MPP+-induced DA cell death, compared with reference clone HB7", "setting": "[4]; 3 μM MPP+ between 5 and 7 DIV, each clone and HB7 0.5 μg/mL", "value": "stronger neuroprotective effect"},
      {"measurement": "neuroprotective effect in the presence of the lysosomal exocytosis inhibitor vacuolin-1", "setting": "[4]; 3 μM MPP+, test substance 1 μg/mL, vacuolin-1 10 μM", "value": "antagonized"}
    ]}
  ]
}
